Experimental data from paper doi:10.1101/2025.11.12.687969 (bioRxiv, 2025).

Molecular target: EGFP–TDP-43 (human, UniProt Q13148 1-414)
Experiment: co-IP

B1: Myc–TDP-43 ΔNLS (natural protein, human, UniProt Q13148-1 1-414, looked up)
chain: MSEYIRVTEDENDEPIEIPSEDDGTVLLSTVTAQFPGACGLRYRNPVSQCMRGVRLVEGILHAPDAGWGNLVYVVNYPKDNAAAMDETDASSAVKVKRAVQKTSDLIVLGLPWKTTEQDLKEYFSTFGEVLMVQVKKDLKTGHSKGFGFVRFTEYETQVKVMSQRHMIDGRWCDCKLPNSKQSQDEPLRSRKVFVGRCTEDMTEDELREFFSQYGDVMDVFIPKPFRAFAFVTFADDQIAQSLCGEDLIIKGISVHISNAEPKHNSNRQLERSGRFGGNPGGFGNQGGFGNSRGGGAGLGNNQGSNMGGGMNFGAFSINPAMMAAAQAALQSSWGMMGMLASQQNQSGPSGNNQNQGNMQREPNQAFGSGNNSYSGSNSGAAIGWGSASNAGSGSGFNGGFGSSMDSKSSGWGM
reduction of the association index relative to WT (log2): 0.77 log2 units
